Results from publication PMC3839904, “The α-Proteobacteria Wolbachia pipientis Protein Disulfide Machinery Has a Regulatory Mechanism Absent in γ-Proteobacteria” (PLoS ONE, 2013).
Blank lines part the entries; values can stand above or below the compound they belong to.

How the values were obtained:
[1] = target: Wolbachia pipientis wMel α-DsbB (integral membrane protein) (Wolbachia pipientis wMel)
[2] = target: Wolbachia pipientis wMel α-DsbB (integral membrane protein) (Wolbachia pipientis wMel); remark: listed apart in the source
[3] = target: Wolbachia pipientis wMel α-DsbB (integral membrane protein) (Wolbachia pipientis wMel); remark: listed apart in the source
[4] = target: α-DsbB [SSCC] (the two cysteines of the first periplasmic loop replaced with serines) (Wolbachia pipientis wMel)
[5] = target: Wolbachia pipientis wMel α-DsbB (integral membrane protein) (Wolbachia pipientis wMel); remark: listed apart in the source
α-DsbB = target: T1, α-DsbB (Wolbachia pipientis, UniProt Q73G63); test: UQ1 reduction, absorbance at […] nm; AMS gel shift; type: biochemical; conditions: reduced α-DsbA1 […] as electron donor, pH […] beta-DDM, […]°C
T1 construct: gene WD_1099; full-length integral membrane protein, pET21a (NdeI/XhoI) in E. coli BL21(DE3)pLysS, beta-DDM solubilised, TALON and size exclusion purified
T1 sequence (Q73G63 1-173): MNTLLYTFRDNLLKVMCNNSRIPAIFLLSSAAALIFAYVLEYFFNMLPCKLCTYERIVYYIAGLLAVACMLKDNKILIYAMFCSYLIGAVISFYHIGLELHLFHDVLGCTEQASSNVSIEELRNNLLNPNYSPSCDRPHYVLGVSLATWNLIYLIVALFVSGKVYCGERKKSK

gel-shift (AMS labelling) of the redox state of reduced α-DsbA1CA with α-DsbB and UQ1; oxidised variant against oxidised wt at 30 sec, 2 min, 5 min (3, 2 and 1.3 fold) [1]: 3 fold
initial rate of UQ1 reduction (absorbance at 275 nm) with α-DsbB, UQ1 and reduced α-DsbA1CA, 30°C [2]: 0.463 min⁻¹
initial rate of oxidation of the peptide substrate (time-resolved fluorescence) by α-DsbA1CA with wt α-DsbB membranes [3]: 0.00621 min⁻¹
Compound: α-DsbA1CA (α-DsbA1 variant with the cysteines of the non-catalytic disulfide replaced with alanine) (enzyme)

initial rate of UQ1 reduction (absorbance at 275 nm) with α-DsbB (50 nM), UQ1 (30 µM) and reduced α-DsbA1 (30 µM), 30°C [2]: 0.236 min⁻¹
reverse reaction: gel-shift of the oxidation of reduced α-DsbB [SSCC] by oxidized α-DsbA1, within 15 min (% of α-DsbB [SSCC] oxidized) [4]: 50
initial rate of oxidation of the peptide substrate (time-resolved fluorescence) by α-DsbA1 with α-DsbB membranes (endogenous UQ), pH 5.5 [5]: 0.00477 min^-1
Compound: Wolbachia pipientis wMel α-DsbA1 (enzyme)

Compound: COC1=C(OC)C(=O)C(CC=C(C)C)=C(C)C1=O [UQ1, ubiquinone-1]
UQ1 reduction, absorbance at 275 nm; AMS gel shift (α-DsbB): UQ1 reduction was coupled with α-DsbB-mediated oxidation of α-DsbA1
